{"source": "paper PMC10412687", "key": {"[1]": {"biological_target": "RNase E C-terminal domain (residues 451-898) with C-terminal eYFP (Caulobacter crescentus)", "assay": "partitioning of a fluorescent client into condensates (fluorescence microscopy), peptide competition; PNPase incubated with peptide (GWW or scrambled, 0 to 200 µM) before adding RNase E to form droplets; 20 mM Tris pH 7.5, 1 mM MgCl2, 10 mM Na2HPO4 pH 7.5, 100 mM NaCl (120 mM NaCl in Fig. S2), 10% PEG 8000 (Figs. S2, S3)"}, "[2]": {"biological_target": "RNase E C-terminal domain (residues 451-898) with C-terminal eYFP (Caulobacter crescentus)", "assay": "partitioning of a fluorescent client into condensates (fluorescence microscopy); RNase E CTD condensates as scaffold, PNPase-mCherry variants as clients; 20 mM Tris pH 7.5, 20 mM MgCl2, 4 mM Na2HPO4 pH 7.5, 70 mM NaCl, 0.5 mM DTT; 30 min at room temperature; partitioning ratio (Fig. 3)"}, "[3]": {"biological_target": "RNase E C-terminal domain (residues 451-898) with C-terminal eYFP (Caulobacter crescentus)", "assay": "partitioning of a fluorescent client into condensates (fluorescence microscopy); 20 µM RNase E CTD-eYFP (or ∆PNP-BS) condensates as scaffold, mCherry-labelled client; 20 mM Tris pH 7.5, 1 mM MgCl2, 10 mM Na2HPO4 pH 7.5, 100 mM NaCl, 10% PEG 8000; 30 min at room temperature; partitioning ratio = mean droplet signal / mean non-droplet signal (Figs. 2, S1)"}}, "data": [{"molecule": "PNPase-mCherry as used in the peptide competition and poly(A) recruitment microscopy (from UniProt Q9AC32 1-712) (enzyme)", "values": [{"measurement": "partitioning ratio (without peptide)", "setting": "[1]", "value": 2.8}, {"measurement": "partitioning ratio with 100 µM GWW peptide", "setting": "[1]", "value": 1.7}]}, {"molecule": "PNPase-S439A/S440A/S441A-mCherry (PNPase active site mutant) (enzyme) MFDIKRKTIEWGGKTLVLETGRIARQADGAVLATMGETVVLATAVFAKSQKPGQDFFPLTVNYQEKTFAAGKIPGGFFKREGRPSEKETLVSRLIDRPIRPLFVKGFKNEVQVVVTVLQHDLENDPDILGMVAASAALCLSGAPFMGPIGAARVGWVDGAYVLNPTLDEMKESKMDLVVAGTADAVMMVESEIQELSEEIVLGGVNFAHQQMQAVIDAIIDLAEHAAKEPFAFEPEDTDAIKAKMKDLVGADIAAAYKIQKKQDRYEAVGAAKKKAIAALGLSDENPTGYDPLKLGAIFKELEADVVRRGILDTGLRIDGRDVKTVRPILGEVGILPRTHGSALFTRGETQAIVVATLGTGDDEQFIDALEGTYKESFLLHYNFPPYSVGETGRMGSPGRREIGHGKLAWRALRPMLPTKEDFPYTIRLVSEITESNGAAAMATVCGSSLAMMDAGVPLVRPVSGIAMGLILEQDGFAVLSDILGDEDHLGDMDFKVAGTSEGLTSLQMDIKIAGITPAIMEQALAQAKEGRAHILGEMNKAMDAPRADVGDFAPKIETINIPTDKIREVIGSGGKVIREIVATTGAKVDINDDGVVKVSASDGAKIKAAIDWIKSITDEAEVGKIYDGKVVKVVDFGAFVNFFGAKDGLVHVSQISNERVAKPSDVLKEGQMVKVKLLGFDDRGKTKLSMKVVDQETGEDLSKKEAAAEEA", "values": [{"measurement": "partitioning ratio", "setting": "[2]", "value": 4.4}, {"measurement": "partitioning ratio", "setting": "[3]", "value": 5.7}]}, {"molecule": "PNPase-V104A/E224A/F233A-mCherry (enzyme) MFDIKRKTIEWGGKTLVLETGRIARQADGAVLATMGETVVLATAVFAKSQKPGQDFFPLTVNYQEKTFAAGKIPGGFFKREGRPSEKETLVSRLIDRPIRPLFAKGFKNEVQVVVTVLQHDLENDPDILGMVAASAALCLSGAPFMGPIGAARVGWVDGAYVLNPTLDEMKESKMDLVVAGTADAVMMVESEIQELSEEIVLGGVNFAHQQMQAVIDAIIDLAAHAAKEPFAAEPEDTDAIKAKMKDLVGADIAAAYKIQKKQDRYEAVGAAKKKAIAALGLSDENPTGYDPLKLGAIFKELEADVVRRGILDTGLRIDGRDVKTVRPILGEVGILPRTHGSALFTRGETQAIVVATLGTGDDEQFIDALEGTYKESFLLHYNFPPYSVGETGRMGSPGRREIGHGKLAWRALRPMLPTKEDFPYTIRLVSEITESNGSSSMATVCGSSLAMMDAGVPLVRPVSGIAMGLILEQDGFAVLSDILGDEDHLGDMDFKVAGTSEGLTSLQMDIKIAGITPAIMEQALAQAKEGRAHILGEMNKAMDAPRADVGDFAPKIETINIPTDKIREVIGSGGKVIREIVATTGAKVDINDDGVVKVSASDGAKIKAAIDWIKSITDEAEVGKIYDGKVVKVVDFGAFVNFFGAKDGLVHVSQISNERVAKPSDVLKEGQMVKVKLLGFDDRGKTKLSMKVVDQETGEDLSKKEAAAEEA", "values": [{"measurement": "partitioning ratio", "setting": "[2]", "value": 1}]}]}
